Source: patent US20100272734A1 (Novartis, published 2010)
Each block holds one binder with its values, some of them ahead of it.

Legend:
[1] = molecular target: endogenous human ActRIIB on cells (human) (UniProt Q13705); experiment: cell-based or functional assay
human TGF-βRII/Fc = molecular target: T1, human TGF-βRII/Fc (human, UniProt P37173 24-159); experiment: specificity ELISA on coated recombinant protein
T1 construct: Bought counter-target
Experimental: (§1) The specificity of anti-ActRIIB Fab antibodies to human ActRIIB and crossreactivity to human ActRIIA and mouse ActRIIB is evaluated in an ELISA setting. Additionally, binding to related receptors (counter-targets: human TGF-βRII/Fc (R&D systems), mouse TGF-βRI (ALK-5)/Fc (R&D systems), human Activin RIB (ALK-4)/Fc (R&D systems)) is determined. For this 5 μg/ml (if not stated otherwise) of the recombinant proteins diluted in PBS are added to a black 96-well flat-bottom MaxiSorp™ plate and incubated over night at 4° C. for coating.
(§2) The next morning, the plates are washed with TBST and blocked with MTBST. After washing the plates several times, 5 μg/ml anti-ActRIIB Fab are added and incubated for 2.5 hrs. Subsequently antigen bound Fabs are detected by incubation with alkaline phosphatase conjugated goat-anti-human IgG Fab-specific, followed by addition of AttoPhos fluorescence substrate.

mouse TGF-βRI (ALK-5)/Fc = molecular target: T2, mouse TGF-βRI (ALK-5)/Fc (mouse, UniProt Q64729 30-125, limits assumed); experiment: specificity ELISA on coated recombinant protein
T2 construct: Bought counter-target
T2 sequence (looked up): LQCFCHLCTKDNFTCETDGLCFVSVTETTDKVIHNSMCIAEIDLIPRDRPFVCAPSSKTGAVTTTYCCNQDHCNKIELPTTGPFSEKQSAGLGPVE
Experimental: as §1, §2

[2] = molecular target: T3, human Activin RIB (ALK-4)/Fc (human, UniProt P36896 24-126); experiment: specificity ELISA on coated recombinant protein
T3 construct: Bought counter-target
T3 sequence (looked up): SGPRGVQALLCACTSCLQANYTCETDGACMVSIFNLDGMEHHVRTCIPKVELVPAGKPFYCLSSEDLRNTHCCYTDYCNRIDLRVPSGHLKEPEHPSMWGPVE
Experimental: as §1, §2

endogenous human ActRIIB on cells (human), sequence (Q13705 19-512 E459A limits assumed): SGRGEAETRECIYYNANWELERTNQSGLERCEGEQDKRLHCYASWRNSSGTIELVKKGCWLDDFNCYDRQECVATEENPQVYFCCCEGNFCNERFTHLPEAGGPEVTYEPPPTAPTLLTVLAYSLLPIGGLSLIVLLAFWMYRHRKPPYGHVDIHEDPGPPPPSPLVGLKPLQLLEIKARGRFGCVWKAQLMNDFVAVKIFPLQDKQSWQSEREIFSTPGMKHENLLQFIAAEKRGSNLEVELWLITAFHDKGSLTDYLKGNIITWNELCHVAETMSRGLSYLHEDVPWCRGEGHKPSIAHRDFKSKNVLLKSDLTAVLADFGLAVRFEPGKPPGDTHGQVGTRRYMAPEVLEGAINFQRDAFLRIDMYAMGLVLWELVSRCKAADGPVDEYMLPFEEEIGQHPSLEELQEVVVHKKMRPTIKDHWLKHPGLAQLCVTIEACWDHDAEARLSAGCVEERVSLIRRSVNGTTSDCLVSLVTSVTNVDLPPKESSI
T1 sequence (P37173 24-159 limits assumed): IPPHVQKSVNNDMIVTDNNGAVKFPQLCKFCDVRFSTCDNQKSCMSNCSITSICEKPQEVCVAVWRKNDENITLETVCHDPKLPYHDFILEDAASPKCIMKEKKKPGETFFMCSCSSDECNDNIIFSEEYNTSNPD

Emax of ligand-induced inhibition of skeletal muscle differentiation in the presence of MOR08159 (10 µg/ml) [1]: 22.1 % control
Emax of ligand-induced inhibition of skeletal muscle differentiation in the presence of MOR08213 (10 µg/ml) [1]: 27.1 % control
Emax of ligand-induced inhibition of skeletal muscle differentiation, no Ab [1]: 23.2 % control
IC50 of ligand-induced inhibition of skeletal muscle differentiation in the presence of MOR08159 (10 µg/ml) [1]: 0.0133 µg/mL
IC50 of ligand-induced inhibition of skeletal muscle differentiation in the presence of MOR08213 (10 µg/ml) [1]: 0.012 µg/mL
IC50 of ligand-induced inhibition of skeletal muscle differentiation, no Ab [1]: 0.007 µg/mL
B1: GDF-11 (ligand, UniProt O95390 299-407, looked up)
chain: NLGLDCDEHSSESRCCRYPLTVDFEAFGWDWIIAPKRYKANYCSGQCEYMFMQKYPHTHLVQQANPRGSAGPCCTPTKMSPINMLYFNDKQQIIYGKIPGMVVDRCGCS

Emax of ligand-induced inhibition of skeletal muscle differentiation in the presence of MOR08159 (10 µg/ml) [1]: 61.9 % control
Emax of ligand-induced inhibition of skeletal muscle differentiation in the presence of MOR08213 (10 µg/ml) [1]: 57.2 % control
Emax of ligand-induced inhibition of skeletal muscle differentiation, no Ab [1]: 37.1 % control
IC50 of ligand-induced inhibition of skeletal muscle differentiation in the presence of MOR08159 (10 µg/ml) [1]: 0.0347 µg/mL
IC50 of ligand-induced inhibition of skeletal muscle differentiation in the presence of MOR08213 (10 µg/ml) [1]: 0.0419 µg/mL
IC50 of ligand-induced inhibition of skeletal muscle differentiation, no Ab [1]: 0.0147 µg/mL
B2: Activin A (ligand, UniProt P08476 311-426, looked up)
chain: GLECDGKVNICCKKQFFVSFKDIGWNDWIIAPSGYHANYCEGECPSHIAGTSGSSLSFHSTVINHYRMRGHSPFANLKSCCVPTKLRPMSMLYYDDGQNIIKKDIQNMIVEECGCS

binding result (human TGF-βRII/Fc): no binding (tested: 5 µg/ml Fab)
binding result (mouse TGF-βRI (ALK-5)/Fc): no binding (tested: 5 µg/ml Fab)
binding result [2]: no binding (tested: 5 µg/ml Fab)
B3: MOR07079 Fab (Fab, V domains shown)
VH: QVQLVQSGAEVKKPGASVKVSCKASGYTFTSSYINWVRQAPGQGLEWMGTINPVSGNTSYAQKFQGRVTMTRDTSISTAYMELSSLRSEDTAVYYCARGGWFDYWGQGTLVTVSS
VL: DIALTQPASVSGSPGQSITISCTGTSSDVGSYNYVNWYQQHPGKAPKLMIYGVSKRPSGVSNRFSGSKSGNTASLTISGLQAEDEADYYCQAWTSKMAGVFGGGTKLTVL
notes: Parental HuCAL GOLD Fab (Fab-FH format from pMORPH X9_FH vector); also called MOR7079; Fab-FH
